“And” between values parts separate entries of the source, which are not always exact repeats. Equal values may be shown once. Read-outs that look alike come from different tables or passages of the source.
Key:
Assay in all cases: SPR
[1] = molecular target: T1, Tissue factor (TF) extracellular domain (human, UniProt P13726)
T1 chain: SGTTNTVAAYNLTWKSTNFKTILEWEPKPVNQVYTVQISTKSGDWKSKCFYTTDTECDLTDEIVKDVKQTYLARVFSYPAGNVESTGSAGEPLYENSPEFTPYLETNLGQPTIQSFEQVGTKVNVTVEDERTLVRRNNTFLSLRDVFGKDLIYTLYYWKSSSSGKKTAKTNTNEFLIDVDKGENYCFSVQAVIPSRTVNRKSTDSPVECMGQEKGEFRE

[2] = molecular target: T1, Tissue factor (TF) extracellular domain
[3] = molecular target: T1, Tissue factor (TF) extracellular domain
[4] = molecular target: T1, Tissue factor (TF) extracellular domain

Kd [1]: 56 pM | Kd [2]: 52 pM | Kd [3]: 52.2 pM and 62.2 pM | Kd [4]: 60 pM
B1: D3H44 WT Fab (antibody)
chain 1: EVQLVESGGGLVQPGGSLRLSCAASGFNIKEYYMHWVRQAPGKGLEWVGLIDPEQGNTIYDPKFQDRATISADNSKNTAYLQMNSLRAEDTAVYYCAR
chain 2: DIQMTQSPSSLSASVGDRVTITCRASRDIKSYLNWYQQKPGKAPKVLIYYATSLAEGVPSRFSGSGSGTDYTLTISSLQPEDFATYYCLQHG
